1 molecule from paper PMC7305465, “A Cardiac Troponin T Biosensor Based on Aptamer Self-assembling on Gold” can be followed below.

The series concerns the target cardiac troponin T (TnT) (human, UniProt P45379 2-298). Put plainly: electrochemical aptasensor (DPV, ferro/ferricyanide); 0.05-5 ng/mL TnT; LOD 0.01 ng/mL; aptamer on gold; TnT binding at 37 C, ~30 min, working pH 7.4; aptamer immobilized from 10 mM phosphate, 5 mM NaCl, 2 mM KCl, 1 mM MgCl2, pH 7.4; DPV in 20 mM Tris-HCl, 0.5 M KCl, 0.5 M ferro/ferricyanide. The following applies: protein: commercial.

With CGTGCAGTACGCCAACCTTTCTCATGCGCTGCCCCTCTTA (structured_DNA, 5'-SH-(CH2)6 thiol) [TnT aptamer], the binding result is recorded as “binds”.
